Data taken from PMC5600700.

How the values were obtained:
Cx45 CT = Cx45 CT (UniProt P36383); details: cited from earlier work
[1] = target: Cx45CT WT (Lyn-HA-Cx45CT-mVenusN and Lyn-Myc-Cx45CT-mVenusC) (not stated (human or mouse cDNA cloned)); assay: split reporter
[2] = target: Cx45 6E (stably expressed in MDCK cells) (not stated (human or mouse cDNA cloned)) (UniProt P28229); assay: co-IP
UniProt P28229, sequence (P28229 whole entry L335E/L338E/L349E/I353E/Y356E): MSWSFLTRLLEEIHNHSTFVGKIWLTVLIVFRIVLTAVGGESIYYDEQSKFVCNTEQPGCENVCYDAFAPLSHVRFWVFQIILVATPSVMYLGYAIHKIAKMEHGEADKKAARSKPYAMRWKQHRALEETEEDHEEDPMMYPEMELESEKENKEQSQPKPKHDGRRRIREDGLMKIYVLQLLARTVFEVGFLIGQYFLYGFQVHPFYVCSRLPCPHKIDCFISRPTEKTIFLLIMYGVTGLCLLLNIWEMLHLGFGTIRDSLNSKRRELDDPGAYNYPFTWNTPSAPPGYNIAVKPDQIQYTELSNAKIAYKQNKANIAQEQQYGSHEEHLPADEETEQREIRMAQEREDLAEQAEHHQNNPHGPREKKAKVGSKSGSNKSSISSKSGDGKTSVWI

Cx45 CT, sequence (P36383 265-396): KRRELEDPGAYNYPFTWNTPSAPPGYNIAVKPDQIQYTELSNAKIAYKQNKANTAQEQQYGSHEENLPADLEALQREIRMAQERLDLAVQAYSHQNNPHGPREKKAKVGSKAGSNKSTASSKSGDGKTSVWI

Cx45 CT (from UniProt P36383)
Kd (Cx45 CT): 100 nM

Cx45CT WT (Lyn-HA-Cx45CT-mVenusN and Lyn-Myc-Cx45CT-mVenusC) (domain or fragment)
fold mVenus signal at the plasma membrane (normalized to Myc) over Cx45CT 6E [1]: 2.5 fold

developmentally regulated brain protein (Drebrin) (natural protein)
fold increase of the co-immunoprecipitated amount relative to Cx45 WT [2]: 2 fold

neural precursor cell expressed developmentally down-regulated protein 4 (Nedd4) (enzyme)
fold decrease of the co-immunoprecipitated amount relative to Cx45 WT [2]: 2 fold

β-tubulin (natural protein)
fold decrease of the co-immunoprecipitated amount relative to Cx45 WT [2]: 3 fold
